To fix the notation:
B1: anti-IL-6 Fab, heavy chain A105K (Fab, V domains shown)
VH: EVQLVESGGGLVQPGGSLRLSCAASGFTFSPFAMSWVRQAPGKGLEWVAKISPGGSWTYYSDTVTGRFTFSLDTSKSTAYLQMNSLRAEDTAVYYCARQLWGYYKLDIWGQGTLVTVSS
VL: DIQLTQSPSSLSASVGDRVTITCSASISVSYMYWYQQKPGKAPKLLIYDMSNLASGVPSRFSGSGSGTDFTLTISSLQPEDFATYYCMQWSGYPYTFGQGTKVEIK
notes: built as m22 plus the named change
B2: anti-IL-6 Fab, heavy chain S30G (Fab, V domains shown)
VH: EVQLVESGGGLVQPGGSLRLSCAASGFTFGPFAMSWVRQAPGKGLEWVAKISPGGSWTYYSDTVTGRFTFSLDTSKSTAYLQMNSLRAEDTAVYYCARQLWGYYALDIWGQGTLVTVSS
VL: DIQLTQSPSSLSASVGDRVTITCSASISVSYMYWYQQKPGKAPKLLIYDMSNLASGVPSRFSGSGSGTDFTLTISSLQPEDFATYYCMQWSGYPYTFGQGTKVEIK
notes: as for B1
B3: anti-IL-6 Fab, heavy chain L100Q (Fab, V domains shown)
VH: EVQLVESGGGLVQPGGSLRLSCAASGFTFSPFAMSWVRQAPGKGLEWVAKISPGGSWTYYSDTVTGRFTFSLDTSKSTAYLQMNSLRAEDTAVYYCARQQWGYYALDIWGQGTLVTVSS
VL: DIQLTQSPSSLSASVGDRVTITCSASISVSYMYWYQQKPGKAPKLLIYDMSNLASGVPSRFSGSGSGTDFTLTISSLQPEDFATYYCMQWSGYPYTFGQGTKVEIK
notes: as for B1
B4: anti-IL-6 Fab, light chain A54Y (Fab, V domains shown)
VH: EVQLVESGGGLVQPGGSLRLSCAASGFTFSPFAMSWVRQAPGKGLEWVAKISPGGSWTYYSDTVTGRFTFSLDTSKSTAYLQMNSLRAEDTAVYYCARQLWGYYALDIWGQGTLVTVSS
VL: DIQLTQSPSSLSASVGDRVTITCSASISVSYMYWYQQKPGKAPKLLIYDMSNLYSGVPSRFSGSGSGTDFTLTISSLQPEDFATYYCMQWSGYPYTFGQGTKVEIK
notes: as for B1
B5: anti-IL-6 Fab, heavy chain Y103D (Fab, V domains shown)
VH: EVQLVESGGGLVQPGGSLRLSCAASGFTFSPFAMSWVRQAPGKGLEWVAKISPGGSWTYYSDTVTGRFTFSLDTSKSTAYLQMNSLRAEDTAVYYCARQLWGDYALDIWGQGTLVTVSS
VL: DIQLTQSPSSLSASVGDRVTITCSASISVSYMYWYQQKPGKAPKLLIYDMSNLASGVPSRFSGSGSGTDFTLTISSLQPEDFATYYCMQWSGYPYTFGQGTKVEIK
notes: as for B1
B6: anti-IL-6 Fab, light chain S55T (Fab, V domains shown)
VH: EVQLVESGGGLVQPGGSLRLSCAASGFTFSPFAMSWVRQAPGKGLEWVAKISPGGSWTYYSDTVTGRFTFSLDTSKSTAYLQMNSLRAEDTAVYYCARQLWGYYALDIWGQGTLVTVSS
VL: DIQLTQSPSSLSASVGDRVTITCSASISVSYMYWYQQKPGKAPKLLIYDMSNLATGVPSRFSGSGSGTDFTLTISSLQPEDFATYYCMQWSGYPYTFGQGTKVEIK
notes: as for B1
B7: anti-IL-6 Fab, heavy chain S30V (Fab, V domains shown)
VH: EVQLVESGGGLVQPGGSLRLSCAASGFTFVPFAMSWVRQAPGKGLEWVAKISPGGSWTYYSDTVTGRFTFSLDTSKSTAYLQMNSLRAEDTAVYYCARQLWGYYALDIWGQGTLVTVSS
VL: DIQLTQSPSSLSASVGDRVTITCSASISVSYMYWYQQKPGKAPKLLIYDMSNLASGVPSRFSGSGSGTDFTLTISSLQPEDFATYYCMQWSGYPYTFGQGTKVEIK
notes: as for B1
B8: anti-IL-6 Fab, light chain V29L (Fab, V domains shown)
VH: EVQLVESGGGLVQPGGSLRLSCAASGFTFSPFAMSWVRQAPGKGLEWVAKISPGGSWTYYSDTVTGRFTFSLDTSKSTAYLQMNSLRAEDTAVYYCARQLWGYYALDIWGQGTLVTVSS
VL: DIQLTQSPSSLSASVGDRVTITCSASISLSYMYWYQQKPGKAPKLLIYDMSNLASGVPSRFSGSGSGTDFTLTISSLQPEDFATYYCMQWSGYPYTFGQGTKVEIK
notes: as for B1
B9: anti-IL-6 Fab, heavy chain S30W (Fab, V domains shown)
VH: EVQLVESGGGLVQPGGSLRLSCAASGFTFWPFAMSWVRQAPGKGLEWVAKISPGGSWTYYSDTVTGRFTFSLDTSKSTAYLQMNSLRAEDTAVYYCARQLWGYYALDIWGQGTLVTVSS
VL: DIQLTQSPSSLSASVGDRVTITCSASISVSYMYWYQQKPGKAPKLLIYDMSNLASGVPSRFSGSGSGTDFTLTISSLQPEDFATYYCMQWSGYPYTFGQGTKVEIK
notes: as for B1
B10: anti-IL-6 Fab, light chain S55I (Fab, V domains shown)
VH: EVQLVESGGGLVQPGGSLRLSCAASGFTFSPFAMSWVRQAPGKGLEWVAKISPGGSWTYYSDTVTGRFTFSLDTSKSTAYLQMNSLRAEDTAVYYCARQLWGYYALDIWGQGTLVTVSS
VL: DIQLTQSPSSLSASVGDRVTITCSASISVSYMYWYQQKPGKAPKLLIYDMSNLAIGVPSRFSGSGSGTDFTLTISSLQPEDFATYYCMQWSGYPYTFGQGTKVEIK
notes: as for B1
B11: anti-IL-6 Fab, heavy chain A105Q (Fab, V domains shown)
VH: EVQLVESGGGLVQPGGSLRLSCAASGFTFSPFAMSWVRQAPGKGLEWVAKISPGGSWTYYSDTVTGRFTFSLDTSKSTAYLQMNSLRAEDTAVYYCARQLWGYYQLDIWGQGTLVTVSS
VL: DIQLTQSPSSLSASVGDRVTITCSASISVSYMYWYQQKPGKAPKLLIYDMSNLASGVPSRFSGSGSGTDFTLTISSLQPEDFATYYCMQWSGYPYTFGQGTKVEIK
notes: as for B1
B12: anti-IL-6 Fab, heavy chain Q99A (Fab, V domains shown)
VH: EVQLVESGGGLVQPGGSLRLSCAASGFTFSPFAMSWVRQAPGKGLEWVAKISPGGSWTYYSDTVTGRFTFSLDTSKSTAYLQMNSLRAEDTAVYYCARALWGYYALDIWGQGTLVTVSS
VL: DIQLTQSPSSLSASVGDRVTITCSASISVSYMYWYQQKPGKAPKLLIYDMSNLASGVPSRFSGSGSGTDFTLTISSLQPEDFATYYCMQWSGYPYTFGQGTKVEIK
notes: as for B1
B13: anti-IL-6 antibody, heavy chain variant I (M34I/G66D/I108V), light chain variant III (M32L/M50D/N52S/M88Q) (antibody, human IgG1, V domains shown)
VH: EVQLVESGGGLVQPGGSLRLSCAASGFTFSPFAISWVRQAPGKGLEWVAKISPGGSWTYYSDTVTDRFTFSLDTSKSTAYLQMNSLRAEDTAVYYCARQLWGYYALDVWGQGTLVTVSS
VL: DIQLTQSPSSLSASVGDRVTITCSASISVSYLYWYQQKPGKAPKLLIYDDSSLASGVPSRFSGSGSGTDFTLTISSLQPEDFATYYCQQWSGYPYTFGQGTKVEIK
notes: engineered human IgG1; also called I/III
B14: anti-IL-6 antibody, heavy chain T65Q, G66D / light chain WT (antibody, human IgG1, V domains shown)
VH: EVQLVESGGGLVQPGGSLRLSCAASGFTFSPFAMSWVRQAPGKGLEWVAKISPGGSWTYYSDTVQDRFTFSLDTSKSTAYLQMNSLRAEDTAVYYCARQLWGYYALDIWGQGTLVTVSS
VL: DIQLTQSPSSLSASVGDRVTITCSASISVSYMYWYQQKPGKAPKLLIYDMSNLASGVPSRFSGSGSGTDFTLTISSLQPEDFATYYCMQWSGYPYTFGQGTKVEIK
notes: Derived as m2; Engineered human IgG1
B15: anti-IL-6 antibody, heavy chain T63Q, G66D / light chain WT (antibody, human IgG1, V domains shown)
VH: EVQLVESGGGLVQPGGSLRLSCAASGFTFSPFAMSWVRQAPGKGLEWVAKISPGGSWTYYSDQVTDRFTFSLDTSKSTAYLQMNSLRAEDTAVYYCARQLWGYYALDIWGQGTLVTVSS
VL: DIQLTQSPSSLSASVGDRVTITCSASISVSYMYWYQQKPGKAPKLLIYDMSNLASGVPSRFSGSGSGTDFTLTISSLQPEDFATYYCMQWSGYPYTFGQGTKVEIK
notes: as for B14
B16: anti-IL-6 antibody, heavy chain WT / light chain WT (antibody, human IgG1, V domains shown)
VH: EVQLVESGGGLVQPGGSLRLSCAASGFTFSPFAMSWVRQAPGKGLEWVAKISPGGSWTYYSDTVTGRFTFSLDTSKSTAYLQMNSLRAEDTAVYYCARQLWGYYALDIWGQGTLVTVSS
VL: DIQLTQSPSSLSASVGDRVTITCSASISVSYMYWYQQKPGKAPKLLIYDMSNLASGVPSRFSGSGSGTDFTLTISSLQPEDFATYYCMQWSGYPYTFGQGTKVEIK
notes: Full antibody on an engineered human IgG1 framework, Fc with L234A, L235A, G237A and L443C (EU numbering), expressed in Expi293 cells; also called wild-type; parent molecule

T2 sequence (P05231 30-212 limits assumed): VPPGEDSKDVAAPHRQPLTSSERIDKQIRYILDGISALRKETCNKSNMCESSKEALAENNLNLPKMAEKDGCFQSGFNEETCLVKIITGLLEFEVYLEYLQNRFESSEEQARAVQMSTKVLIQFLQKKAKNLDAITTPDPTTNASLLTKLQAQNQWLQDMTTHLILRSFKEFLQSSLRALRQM

For the first test, the target named is T1, recombinant human IL-6 (human, UniProt P05231 30-212).
T1 construct: bought protein; also called interleukin-6
T1 sequence (P05231 30-212 limits assumed): as above
As to the kind of experiment: Biacore, Fab lysate over IL-6 chip, 25 C. As for the experimental part: Fab libraries were constructed containing random single point mutations for all 71 CDR positions, excluding substitutions for Cys, Met and Asn due to the chemical liabilities associated with these amino acids. Small-scale expression in 96 well plates format was utilized for screening the Fab libraries. E. coli colonies (TG1 cells, Zymo Research) containing randomized single point mutations were picked into 96 well plates (1.5 mL) and grown overnight at 30° C. in LB Amp+2% glucose. A separate 96 well plate was created on the following day by removing 100 μL of culture and adding 100 μL of 30% glycerol, then stored at −80° C. The remaining culture was spun down for 20 min and later resuspended in 1.5 mL of LB Amp containing 1 mM IPTG for induction of protein expression at 30° C. After 5 hours, cells were spun down, resuspended in 500 μL of HBS-EP+ buffer and lysed by one freeze/thaw cycle. Lysates were centrifuged for 30 minutes and vacuum filtered (200 μL) into round bottom 96 well plates for Biacore analysis.
Three ranges of antigen density (100-150 RU, 300-400 RU, 400-600 RU) were obtained by using variable flow times for each chip channel, later blocked with ethanolamine. Supernatants of the 96-well filtered culture lysates were injected at […] for 120 seconds. Fitting of dissociation curves (300 seconds) to single exponential decay curve was used for the determination of dissociation rates (koff). Chip surfaces were regenerated with 10 mM Glycine pH 1.7 solution injected at 50 μL/min during 60 seconds after every cycle of sample binding and dissociation.
(Surface plasmon resonance follows binding to a sensor surface in real time, without labels.)
As for B1, the koff (commonly the first-order rate constant of dissociation) turned out to be 0.00401 s⁻¹. Same read-out and setting: in the case of B2 it was 0.00977 s⁻¹; in that of B3, 0.00245 s⁻¹. Same read-out and setting: as for B4, the figure is 0.00529 s⁻¹. With B5, the koff was found to be 0.00503 s⁻¹.

In the case of B6, the koff amounted to 0.0052 s⁻¹. Consider B7, for which the koff came out at 0.00352 s⁻¹. On the same count and under the same terms, as for B8, the figure is 0.00943 s⁻¹. The same measure, in the same setting: as for B9, the figure is 0.00869 s⁻¹; as for B10, 0.005 s⁻¹.

In the case of B11, the koff is 0.00378 s⁻¹. On to B12, for which the koff turned out to be 0.00385 s⁻¹.

In the next test the target is T1, recombinant human IL-6. As to the kind of experiment: Biacore, antibody captured on Protein A, IL-6 as analyte. The protocol:
(§1) Antibodies were captured on a Protein A chip (GE) by injecting 1:20 cell supernatant dilutions at 10 μL/min for 60 seconds. […] The sensor chip was regenerated by a 60 seconds injection of 10 mM Glycine pH 1.7 at the flow rate of […]. […] For this setup, 1 μg/mL of purified antibody was injected over a Protein A chip at 10 μL/min for 25 seconds. […] The sensor chip was regenerated by a 60 seconds injection of 10 mM Glycine pH 1.7 at flow rate of 50 μL/min. Data analysis for supernatant and purified samples were performed using BIAevaluation software (GE). All sensorgrams were double reference subtracted and fit using a 1:1 Langmuir binding model.
B13: the binding result is reported as “binds”.

A further test concerns the target T2, human IL-6 (human, UniProt P05231 30-212).
T2 construct: also called interleukin-6
As to the kind of experiment: SPR (Biacore T200), purified antibody captured on Protein A, IL-6 flowed over, 37 C. As for the experimental part:
as §1
For the molecule B14, binding was put at a Kd of 0.148 nM; the koff turned out to be 0.000262 s⁻¹; the kon (in general, a measure of how fast the partners come together) turned out to be 1.77e+06 M⁻¹ s⁻¹. For B15, in that order: 0.193 nM, 0.000251 s⁻¹ and 1.3e+06 M⁻¹ s⁻¹.

For the molecule B16, the Kd (commonly a measure of binding affinity in units of concentration) was 0.226 nM, the koff worked out at 0.000128 s⁻¹ and the kon stood at 565000 M⁻¹ s⁻¹.

The target in the next test is T2, human IL-6. As to the kind of experiment: SPR (Biacore T200), antibody from cell supernatant captured on Protein A, IL-6 flowed over, 37 C. As for the experimental part:
Those four positions were selected based on their tolerance for mutations as observed in bacterial and mammalian screens. […] These cultures were centrifuged and supernatants containing secreted antibodies were harvested and diluted in HBS-EP+ running buffer (1:20 ratio).
as §1
Turning to B14, binding was put at a Kd of 0.158 nM, the koff stood at 0.000517 s⁻¹ and the kon stood at 3.28e+06 M⁻¹ s⁻¹. For B15, in that order: 0.203 nM, 0.000408 s⁻¹ and 2.01e+06 M⁻¹ s⁻¹. For B16, in that order: 0.381 nM, 0.000255 s⁻¹ and 670000 M⁻¹ s⁻¹.
